In PMC3783164:

B1: MRE1.3a (25 bp) (dsDNA)
DNA 1: GCAGCAGCCTCCTCCCCCCGCACGG
DNA 2: CCGTGCGGGGGGAGGAGGCTGCTGC
B2: MRE1.3 (dsDNA)
DNA 1: GCAGCAGCCTCCTCCCCCCGCACGGTGTGAGCGCCCGACGCGGCCGAGGCGGCCGGAGTCCCGAG
DNA 2: CTCGGGACTCCGGCCGCCTCGGCCGCGTCGGGCGCTCACACCGTGCGGGGGGAGGAGGCTGCTGC

Target: SP1 (rhSP1) (Homo sapiens, UniProt P08047 1-785)
Experiment: EMSA

SP1 (rhSP1), sequence (P08047 whole entry): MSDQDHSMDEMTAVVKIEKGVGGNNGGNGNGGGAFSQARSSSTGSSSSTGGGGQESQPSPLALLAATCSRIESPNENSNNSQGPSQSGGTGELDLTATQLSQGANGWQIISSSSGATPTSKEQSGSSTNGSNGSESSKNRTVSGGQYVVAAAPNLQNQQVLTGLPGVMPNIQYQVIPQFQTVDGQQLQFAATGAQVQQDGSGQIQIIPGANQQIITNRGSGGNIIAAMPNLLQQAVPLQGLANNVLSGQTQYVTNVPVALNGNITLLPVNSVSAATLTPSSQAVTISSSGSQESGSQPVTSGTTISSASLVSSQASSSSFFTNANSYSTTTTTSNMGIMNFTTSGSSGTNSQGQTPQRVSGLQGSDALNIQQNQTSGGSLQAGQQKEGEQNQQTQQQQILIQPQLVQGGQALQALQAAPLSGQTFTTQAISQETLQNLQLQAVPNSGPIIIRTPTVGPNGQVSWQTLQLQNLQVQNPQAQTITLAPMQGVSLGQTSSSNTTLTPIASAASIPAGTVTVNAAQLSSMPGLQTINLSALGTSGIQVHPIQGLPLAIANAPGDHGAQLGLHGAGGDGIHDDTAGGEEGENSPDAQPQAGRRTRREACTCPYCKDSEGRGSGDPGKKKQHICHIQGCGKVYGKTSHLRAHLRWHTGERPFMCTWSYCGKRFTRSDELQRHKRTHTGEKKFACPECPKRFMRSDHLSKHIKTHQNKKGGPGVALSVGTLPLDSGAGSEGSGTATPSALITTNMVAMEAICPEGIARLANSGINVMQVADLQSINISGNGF

| Binder | binding result |
| --- | --- |
| B1 | binds |
| B2 | binds |
